Experimental findings from US20140357845A1 are described below.

The assay concerns the target miniHA (A/Brisbane/59/2007) (influenza A virus H1N1), A8C8J4. Put plainly: FACS. As to conditions: remark: other sources report otherwise.

B1: CR6261 (antibody, V domains shown)
VH: EVQLVESGAEVKKPGSSVKVSCKASGGPFRSYAISWVRQAPGQGPEWMGGIIPIFGTTKYAPKFQGRVTITADDFAGTVYMELSSLRSEDTAMYYCAKHMGYQVRETMDVWGKGTTVTVSS
VL: QSVLTQPPSVSAAPGQKVTISCSGSSSNIGNDYVSWYQQLPGTAPKLLIYDNNKRPSGIPDRFSGSKSGTSATLGITGLQTGDEANYYCATWDRRPTAYVVFGGGTKLTVLG
The molecule B1 displayed a % positive cells of 1 to 3%.
